Measurements: doi:10.1101/2023.01.06.522972 (bioRxiv, 2023)

B1: poly-L-proline decamer peptide (peptide)
peptide: PPPPPPPPPP
notes: also called poly-L-proline peptide; poly-proline decamer
B2: Leishmania major profilin, wild type (natural protein)
chain: SWQAYVDDSLIGSGNMHSAAIIGAADGSYWAYGGSYVPQPEEVQHIQKCLSDFSFVQSSGVNIYGVKFFGLQCGTDGDCKYIFFKKGAAGGCIYTTKQAFIVAVYGNPGDTSSLQQDLEKNTAHAVTVNPADCNTTVKRIADYLIKLGY
notes: also called LmProfilin; LmProf-WT

Key:
Conditions in all cases: both partners purified
[1] = target: B2; test: other fluorescence titration
[2] = target: T1, Leishmania major actin (Leishmania major, UniProt P45520 2-376); test: crystal structure
T1 construct: also called LmActin; Leishmania actin

[3] = target: T1, Leishmania major actin; test: ITC

T1 sequence (P45520 2-376): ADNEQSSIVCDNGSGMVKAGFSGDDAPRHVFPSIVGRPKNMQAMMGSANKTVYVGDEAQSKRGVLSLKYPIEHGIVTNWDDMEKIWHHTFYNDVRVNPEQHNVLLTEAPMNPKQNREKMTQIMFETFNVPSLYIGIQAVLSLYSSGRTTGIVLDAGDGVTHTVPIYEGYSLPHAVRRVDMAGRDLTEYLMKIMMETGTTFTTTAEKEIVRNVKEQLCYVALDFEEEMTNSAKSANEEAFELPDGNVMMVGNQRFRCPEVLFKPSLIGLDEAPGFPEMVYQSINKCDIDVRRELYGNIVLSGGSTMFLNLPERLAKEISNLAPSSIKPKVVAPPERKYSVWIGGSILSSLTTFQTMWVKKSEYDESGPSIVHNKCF

B1 gave a Kd [1] of 242 ± 38.4 µM.

With B2 the “stoichiometry N” value [2] was 1 and the Kd [3] was about 0.08 µM.
